Test results as given in patent publication US20260216326A1 (PROMETHEUS BIOSCIENCES, published 2026).

B1: A117 (antibody, human IgG1, V domains shown)
VH: QVQLVQSGAEVKKPGASVKVSCKASGFDIQDTYMHWVRQAPGQGLEWMGRIDPASGHIKYDPKFQGRVTMTRDTSTSTVYMELSSLRSEDTAVYYCARSGGLPDWWGQGTTVTVSS
VL: EIVLTQSPGTLSLSPGERATLSCRASSSVSYMYWYQQKPGQAPRPWIYATSNLASGIPDRFSGSGSGTDFTLTISRLEPEDFAVYYCQQWEGNPRTFGGGTKLEIK
notes: human IgG1/kappa (pFuse vectors), culture supernatant
B2: A118 (antibody, human IgG1, V domains shown)
VH: QVQLVQSGAEVKKPGASVKVSCKASGFDIQDTYMHWVRQAPGQGLEWIGRIDPASGHIKYDPKFQGRVTMTRDTSTSTVYMELSSLRSEDTAVYYCARSGGLPDWWGQGTTVTVSS
VL: EIVLTQSPGTLSLSPGERATLSCRASSSVSYMYWYQQKPGQAPRPWIYATSNLASGIPDRFSGSGSGTDFTLTISRLEPEDFAVYYCQQWEGNPRTFGGGTKLEIK
notes: as for B1
B3: A119 (antibody, human IgG1, V domains shown)
VH: QVQLVQSGAEVKKPGASVKVSCKASGFDIQDTYMHWVRQAPGQGLEWMGRIEPASGHTKYDPKFQGRVTMTRDTSTSTVYMELSSLRSEDTAVYYCARSGGLPDWWGQGTTVTVSS
VL: EIVLTQSPGTLSLSPGERATLSCRASSSVSYMYWYQQKPGQAPRPWIYATSNLASGIPDRFSGSGSGTDFTLTISRLEPEDFAVYYCQQWEGNPRTFGGGTKLEIK
notes: as for B1
B4: A120 (antibody, human IgG1, V domains shown)
VH: QVQLVQSGAEVKKPGASVKVSCKASGFDIQDTYMHWVRQAPGQGLEWMGRIEPASGHVKYDPKFQGRVTMTRDTSTSTVYMELSSLRSEDTAVYYCARSGGLPDWWGQGTTVTVSS
VL: EIVLTQSPGTLSLSPGERATLSCRASSSVSYMYWYQQKPGQAPRPWIYATSNLASGIPDRFSGSGSGTDFTLTISRLEPEDFAVYYCQQWEGNPRTFGGGTKLEIK
notes: as for B1
B5: A121 (antibody, human IgG1, V domains shown)
VH: QVQLVQSGAEVKKPGASVKVSCKASGFDIQDTYMHWVRQRPGQGLEWMGRIDPASGHTKYDPKFQVRATITTDTSTSTAYLELSSLRSEDTAVYYCARSGGLPDVWGQGTTVTVSS
VL: EIVLTQSPGTLSLSPGERATLSCRASSSVSYMYWYQQKPGQAPRLLIYATSNLASGIPDRFSGSGSGTDFTLTISRLEPEDFAVYYCQQWKGNPRTFGGGTKLEIK
notes: as for B1
B6: A122 (antibody, human IgG1, V domains shown)
VH: QVQLVQSGAEVKKPGASVKVSCKASGFDIQDTYMHWVRQRPGQGLEWIGRIDPASGHTKYDPKFQVRATITRDTSTSTAYLELSSLRSEDTAVYYCARSGGLPDVWGQGTTVTVSS
VL: EIVLTQSPGTLSLSPGERATLSCRASSSVSYMYWYQQKPGQAPRLLIYATSNLASGIPDRFSGSGSGTDFTLTISRLEPEDFAVYYCQQWKGNPRTFGGGTKLEIK
notes: as for B1
B7: A123 (antibody, human IgG1, V domains shown)
VH: QVQLVQSGAEVKKPGASVKVSCKASGFDIQDTYMHWVRQRPGQGLEWIGRIDPASGHTKYDPKFQVRVTITRDTSTSTAYLELSSLRSEDTAVYYCARSGGLPDVWGQGTTVTVSS
VL: EIVLTQSPGTLSLSPGERATLSCRASSSVSYMYWYQQKPGQAPRLLIYATSNLASGIPDRFSGSGSGTDFTLTISRLEPEDFAVYYCQQWKGNPRTFGGGTKLEIK
notes: as for B1
B8: A124 (antibody, human IgG1, V domains shown)
VH: QVQLVQSGAEVKKPGASVKVSCKASGFDIQDTYMHWVRQRPGQGLEWIGRIDPASGHTKYDPKFQVRVTITTDTSTSTAYLELSSLRSEDTAVYYCARSGGLPDVWGQGTTVTVSS
VL: EIVLTQSPGTLSLSPGERATLSCRASSSVSYMYWYQQKPGQAPRLLIYATSNLASGIPDRFSGSGSGTDFTLTISRLEPEDFAVYYCQQWKGNPRTFGGGTKLEIK
notes: as for B1
B9: A125 (antibody, human IgG1, V domains shown)
VH: QVQLVQSGAEVKKPGASVKVSCKASGFDIQDTYMHWVKQRPGQGLEWMGRIDPASGHTKYDPKFQVRATITRDTSTSTAYLELSSLRSEDTAVYYCARSGGLPDVWGQGTTVTVSS
VL: EIVLTQSPGTLSLSPGERATLSCRASSSVSYMYWYQQKPGQAPRLLIYATSNLASGIPDRFSGSGSGTDFTLTISRLEPEDFAVYYCQQWKGNPRTFGGGTKLEIK
notes: as for B1
B10: A126 (antibody, human IgG1, V domains shown)
VH: QVQLVQSGAEVKKPGASVKVSCKASGFDIQDTYMHWVKQRPGQGLEWMGRIDPASGHTKYDPKFQVRVTITRDTSTSTAYLELSSLRSEDTAVYYCARSGGLPDVWGQGTTVTVSS
VL: EIVLTQSPGTLSLSPGERATLSCRASSSVSYMYWYQQKPGQAPRLLIYATSNLASGIPDRFSGSGSGTDFTLTISRLEPEDFAVYYCQQWKGNPRTFGGGTKLEIK
notes: as for B1
B11: A127 (antibody, human IgG1, V domains shown)
VH: QVQLVQSGAEVKKPGASVKVSCKASGFDIQDTYMHWVKQRPGQGLEWMGRIDPASGHTKYDPKFQVRVTITTDTSTSTAYLELSSLRSEDTAVYYCARSGGLPDVWGQGTTVTVSS
VL: EIVLTQSPGTLSLSPGERATLSCRASSSVSYMYWYQQKPGQAPRLLIYATSNLASGIPDRFSGSGSGTDFTLTISRLEPEDFAVYYCQQWKGNPRTFGGGTKLEIK
notes: as for B1
B12: A128 (antibody, human IgG1, V domains shown)
VH: QVQLVQSGAEVKKPGASVKVSCKASGFDIQDTYMHWVRQRPGQGLEWMGRIDPASGHTKYDPKFQVRVTITRDTSTSTAYLELSSLRSEDTAVYYCARSGGLPDVWGQGTTVTVSS
VL: EIVLTQSPGTLSLSPGERATLSCRASSSVSYMYWYQQKPGQAPRLLIYATSNLASGIPDRFSGSGSGTDFTLTISRLEPEDFAVYYCQQWKGNPRTFGGGTKLEIK
notes: as for B1
B13: A129 (antibody, human IgG1, V domains shown)
VH: QVQLVQSGAEVKKPGASVKVSCKASGFDIQDTYMHWVRQRPGQGLEWMGRIDPASGHTKYDPKFQVRVTITTDTSTSTAYLELSSLRSEDTAVYYCARSGGLPDVWGQGTTVTVSS
VL: EIVLTQSPGTLSLSPGERATLSCRASSSVSYMYWYQQKPGQAPRLLIYATSNLASGIPDRFSGSGSGTDFTLTISRLEPEDFAVYYCQQWKGNPRTFGGGTKLEIK
notes: as for B1
B14: A130 (antibody, human IgG1, V domains shown)
VH: QVQLVQSGAEVKKPGASVKVSCKASGFDIQDTYMHWVRQAPGQGLEWMGRIEPASGHIKYDPKFQVRVTMTRDTSTSTVYMELSSLRSEDTAVYYCARSGGLPDWWGQGTTVTVSS
VL: EIVLTQSPGTLSLSPGERATLSCRASSSVSYMYWYQQKPGQAPRPWIYATSNLASGIPDRFSGSGSGTDFTLTISRLEPEDFAVYYCQQWEGNPRTFGGGTKLEIK
notes: as for B1
B15: A132 (antibody, human IgG1, V domains shown)
VH: QVQLVQSGAEVKKPGASVKVSCKASGFDIQDTYMHWVRQAPGQGLEWMGRIEPASGHIKYDPKFQGRATMTRDTSTSTVYMELSSLRSEDTAVYYCARSGGLPDWWGQGTTVTVSS
VL: EIVLTQSPGTLSLSPGERATLSCRASSSVSYMYWYQQKPGQAPRPLIYATSNLASGIPDRFSGSGSGTDFTLTISRLEPEDFAVYYCQQWKGNPRTFGGGTKLEIK
notes: as for B1
B16: A133 (antibody, human IgG1, V domains shown)
VH: QVQLVQSGAEVKKPGASVKVSCKASGFDIQDTYMHWVRQAPGQGLEWMGRIEPASGHIKYDPKFQVRVTMTRDTSTSTVYMELSSLRSEDTAVYYCARSGGLPDWWGQGTTVTVSS
VL: EIVLTQSPGTLSLSPGERATLSCRASSSVSYMYWYQQKPGQAPRPLIYATSNLASGIPDRFSGSGSGTDFTLTISRLEPEDFAVYYCQQWKGNPRTFGGGTKLEIK
notes: as for B1
B17: A134 (antibody, human IgG1, V domains shown)
VH: QVQLVQSGAEVKKPGASVKVSCKASGFDIQDTYMHWVRQAPGQGLEWMGRIEPASGHIKYDPKFQVRATMTRDTSTSTVYMELSSLRSEDTAVYYCARSGGLPDWWGQGTTVTVSS
VL: EIVLTQSPGTLSLSPGERATLSCRASSSVSYMYWYQQKPGQAPRPLIYATSNLASGIPDRFSGSGSGTDFTLTISRLEPEDFAVYYCQQWKGNPRTFGGGTKLEIK
notes: as for B1
B18: A135 (antibody, human IgG1, V domains shown)
VH: QVQLVQSGAEVKKPGASVKVSCKASGFDIQDTYMHWVRQAPGQGLEWMGRIEPASGHIKYDPKFQGRVTMTRDTSTSTAYMELSSLRSEDTAVYYCARSGGLPDWWGQGTTVTVSS
VL: EIVLTQSPGTLSLSPGERATLSCRASSSVSYMYWYQQKPGQAPRPLIYATSNLASGIPDRFSGSGSGTDFTLTISRLEPEDFAVYYCQQWKGNPRTFGGGTKLEIK
notes: as for B1
B19: A136 (antibody, human IgG1, V domains shown)
VH: QVQLVQSGAEVKKPGASVKVSCKASGFDIQDTYMHWVKQAPGQGLEWMGRIEPASGHIKYDPKFQGRVTMTRDTSTSTVYMELSSLRSEDTAVYYCARSGGLPDWWGQGTTVTVSS
VL: EIVLTQSPGTLSLSPGERATLSCRASSSVSYMYWYQQKPGQAPRPLIYATSNLASGIPDRFSGSGSGTDFTLTISRLEPEDFAVYYCQQWKGNPRTFGGGTKLEIK
notes: as for B1
B20: A137 (antibody, human IgG1, V domains shown)
VH: QVQLVQSGAEVKKPGASVKVSCKASGFDIQDTYMHWVRQAPGQGLEWMGRIEPASGHIKYDPKFQVRVTMTRDTSTSTVYMELSSLRSEDTAVYYCARSGGLPDWWGQGTTVTVSS
VL: EIVLTQSPGTLSLSPGERATLSCRASSSVSYMYWYQQKPGQAPRLLIYATSNLASGIPDRFSGSGSGTDFTLTISRLEPEDFAVYYCQQWSRNPRTFGGGTKLEIK
notes: as for B1
B21: A138 (antibody, human IgG1, V domains shown)
VH: QVQLVQSGAEVKKPGASVKVSCKASGFDIQDTYMHWVRQAPGQGLEWMGRIEPASGHIKYDPKFQVRATMTRDTSTSTVYMELSSLRSEDTAVYYCARSGGLPDWWGQGTTVTVSS
VL: EIVLTQSPGTLSLSPGERATLSCRASSSVSYMYWYQQKPGQAPRLLIYATSNLASGIPDRFSGSGSGTDFTLTISRLEPEDFAVYYCQQWSRNPRTFGGGTKLEIK
notes: as for B1
B22: A139 (antibody, human IgG1, V domains shown)
VH: QVQLVQSGAEVKKPGASVKVSCKASGFDIQDTYMHWVRQRPGQGLEWMGRIDPASGHTKYDPKFQVRVTITTDTSTSTAYLELSSLRSEDTAVYYCARSGGLPDVWGQGTTVTVSS
VL: EIVLTQSPGTLSLSPGERATLSCRASSSVSYMYWYQQKPGQAPRLLIYATSNLASGIPDRFSGSGSGTDFTLTISRLEPEDFAVYYCQQWSRNPRTFGGGTKLEIK
notes: as for B1

Target: T1, human TL1A (Fitzgerald #30R-AT070) (human, UniProt O95150 72-251, limits assumed)
T1 construct: Coated on the ELISA plate at 1 ug/mL; also called TNFSF15
T1 sequence (looked up): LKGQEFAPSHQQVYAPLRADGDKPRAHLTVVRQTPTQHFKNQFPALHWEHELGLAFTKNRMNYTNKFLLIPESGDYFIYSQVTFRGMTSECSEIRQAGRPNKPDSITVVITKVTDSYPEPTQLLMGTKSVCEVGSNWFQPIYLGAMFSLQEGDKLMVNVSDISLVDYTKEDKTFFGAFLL
Assay: ELISA titration, coated human TL1A, culture supernatant

Binder | Kd [nM]
B1 | 0.094
B2 | 0.083
B3 | 0.087
B4 | 0.085
B5 | 0.106
B6 | 0.112
B7 | 0.104
B8 | 0.091
B9 | 0.116
B10 | 0.123
B11 | 0.07
B12 | 0.111
B13 | 0.099
B14 | 0.075
B15 | 0.062
B16 | 0.058
B17 | 0.055
B18 | 0.056
B19 | 0.053
B20 | 0.05
B21 | 0.069
B22 | 0.074
